Experimental data published in paper PMC9561264.
pKd: −log10 of the molar value.

Columns and labels:
[1] = target: hOGG1 (human oxoguanine glycosylase 1), wildtype (human) (UniProt O15527); experiment: FP; oxidising; details: domain or fragment
[2] = target: hOGG1 (human oxoguanine glycosylase 1), wildtype (human) (UniProt O15527); experiment: FP; reducing; details: domain or fragment
[3] = target: hOGG1 wild type (human) (UniProt O15527); experiment: AFM; details: 150 nM hOGG1, 8-oxoguanine at ~50% (49.8%) of length, FP at 25°C with 5 nM labelled DNA, EMSA room temp 30 min, 15% native PAGE 0.5x TBE 4°C, interaction buffer 20 mM Tris-HCl pH 7.6, 200 mM NaCl (Fig. S12) …
[4] = target: hOGG1 (human oxoguanine glycosylase 1), wildtype (human) (UniProt O15527); experiment: fluorescence polarisation; reducing conditions (5 mM DTT); 5 nM Ni-NTA AF488 labelled his6-hOGG1, unlabelled protein titrated (Myc 1.22 nM-2 uM, LSD1 1.38 nM-60 uM, hOGG1 0.24 nM-8 uM); 20 mM Tris-HCl pH 7.6, 200 mM NaCl; 25 C; single Hill fit
[5] = target: hOGG1 (human oxoguanine glycosylase 1), wildtype (human) (UniProt O15527); experiment: fluorescence polarisation; oxidising conditions (5 uM H2O2); 5 nM Ni-NTA AF488 labelled his6-hOGG1, unlabelled protein titrated (Myc 1.22 nM-2 uM, LSD1 1.38 nM-60 uM, hOGG1 0.24 nM-8 uM); 20 mM Tris-HCl pH 7.6, 200 mM NaCl; 25 C; single Hill fit

Sequence of hOGG1 (human oxoguanine glycosylase 1), wildtype (human) (O15527 whole entry, the tested form may be a part): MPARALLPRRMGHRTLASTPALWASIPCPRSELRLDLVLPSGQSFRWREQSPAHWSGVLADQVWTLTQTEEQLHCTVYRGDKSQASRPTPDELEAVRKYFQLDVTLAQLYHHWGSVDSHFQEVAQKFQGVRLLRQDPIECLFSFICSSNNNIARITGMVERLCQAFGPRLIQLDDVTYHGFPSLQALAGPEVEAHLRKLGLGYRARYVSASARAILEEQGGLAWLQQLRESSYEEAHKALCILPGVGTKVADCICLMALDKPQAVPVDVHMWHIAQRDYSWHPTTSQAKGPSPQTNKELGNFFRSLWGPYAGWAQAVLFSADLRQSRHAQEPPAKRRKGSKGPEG
Sequence of hOGG1 wild type (human) (O15527 whole entry): as the sequence (O15527 whole entry, the tested form may be a part) above
Sequence of isolated N-terminal domain of Myc (P01106 16-158): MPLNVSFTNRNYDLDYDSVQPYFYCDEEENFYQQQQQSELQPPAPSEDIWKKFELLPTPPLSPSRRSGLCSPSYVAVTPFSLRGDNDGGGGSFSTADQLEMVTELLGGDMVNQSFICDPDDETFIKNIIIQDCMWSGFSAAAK
Sequence of GST tagged full length c-Myc (P01106 whole entry): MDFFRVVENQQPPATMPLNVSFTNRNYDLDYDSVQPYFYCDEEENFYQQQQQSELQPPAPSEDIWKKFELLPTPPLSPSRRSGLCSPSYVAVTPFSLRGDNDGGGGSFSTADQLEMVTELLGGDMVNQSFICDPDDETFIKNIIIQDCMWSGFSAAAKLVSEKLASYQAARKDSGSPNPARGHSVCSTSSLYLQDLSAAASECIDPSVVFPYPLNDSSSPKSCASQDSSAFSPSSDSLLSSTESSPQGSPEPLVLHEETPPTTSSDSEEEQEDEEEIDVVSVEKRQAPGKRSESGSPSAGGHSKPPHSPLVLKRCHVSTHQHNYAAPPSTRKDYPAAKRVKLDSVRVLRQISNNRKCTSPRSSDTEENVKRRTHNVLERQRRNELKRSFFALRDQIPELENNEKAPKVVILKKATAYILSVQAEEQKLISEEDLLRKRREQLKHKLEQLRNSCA

## isolated N-terminal domain of Myc
[1]
  pKd: 6.15
[2]
  pKd: 5.97

## oxoG 505 bp AFM substrate
[3]; oxidising, specificity 368 ± 74
  binding signal (counts/DNA at oxoG): 0.1
[3]; reducing, specificity 543 ± 37
  binding signal (counts/DNA at oxoG): 0.18

## GST tagged full length c-Myc (from UniProt P01106 1-454) (natural protein; Ni-NTA AlexaFluor 488 dye on the his6 tag (labelled copy in fluorescence polarisation); other documents disagree on this pair)
[4]
  pKd: 5.98
[5]
  pKd: 6.18
